Experimental data taken from patent US20250027068.

Target: pooled human IgG

Protein	Enzyme Activity Endpoint Assay (purified): Fab'2 [ng/µL]	Enzyme Activity Endpoint Assay (purified): Fc [ng/µL]	Enzyme Activity Endpoint Assay (purified): IgG [ng/µL]	Enzyme Activity Endpoint Assay (purified): scIgG [ng/µL]
PRT-115 (protein) MRNATEAYAKETPKTITSVWTKGVTPPTPEQFRYNGEDVIHAPYLAHQGWYDITKTFDGKDNLLCGAATAGNMLHWWFDQNKTEIERYLKKHPEKQKIIFNNQELFDLKAAIDTKDSQTNSALFNYFRDKAFPNLSARQLGVMPDLVLDMFINGYYLNVTKTQSTDVNRPYQTKDKRGGIFDAVFTRGDQTKLLTARHDLKNKTLNDISTLIKQELTEGKALALSHTYANVSISHVINLWGADFNAEGNLEAIYVTDSDSNASIGMKKYFVGVNAAGKVAISAKKIKGENIGAQVLGLFTLSSGKDIWQKLS	124	128	24	105
PRT-116 (protein) MRNATEAYNKATPTTITSVWTKGVTPPTPEQFRYNNEDVFHAPYKAHQGWYDITKTFNGKDNLLCGAATAGNMLHWWFDQNKTEIEAYLSKHPEKQKIIFNNQELFDLKAAIDTKDSQTNSQLFNYFRDKAFPNLSARQLGVMPDLVLDMFINGYYLNVFKTQSTDVNRPYQDKDKRGGIFDAVFTRGDQTKLLTARHDLKDKGLNEISDLIKQELTEGKALALSHTYANVRISHVINLWGADFNAEGNLEAIYVTDSDANASIGMKKYFVGVNSSGHVAISAKKIEGENIGAQVLGLFTLSSGKDIWQKLS	510	188	0	0
PRT-118 (protein) MRNATEAYNKETPKTITSVWTKGVTPPTPEQFTKQNEDVFHAPYVANQGWYDITKTFNGKDNLLCGAATAGNMLHWWFDQNKTEIENYLKKHPEKQKIIFNNQELFDLKAAIDTKDSQTNSALFNYFRDKAFPNLSARQLGVMPDHVLDMFINGYYLNVNKTQSTDVNRPYDDKDKRGGIFDAVFTRGDQTTLLTARHDLKNKGLNEISTLIKQELTEGRALALSHTYANVSISHVINLWGADFNAEGNLEAIYVTDSDANASIGMKKYFVGKNASGKVAISAKKIEGDNIGAQVLGLFTLSSGKDIWQKLS	23	85	0	153
PRT-117 (protein) MRNATEAYAKEVPHTITSVWTKGVTPPTPEQFTYQNEDVFHAPYLANQGWYDITKTFNGKDNLLCGAATAGNMLHWWFDQNKEEIERYLSKHPEKQKIIFNNQELFDLKAAIDTKDSQTNSALFNYFRDKAFPNLSARQLGVMPDLVLDMFINGYYLNVFKTQSTDVNRPYQDKDKRGGIFDAVFTRGDQTTLLTARHDLKNKGLNDISDLIKQELTEGKALALSHTYANVSISHVINLWGADFNAEGNLEAIYVTDSDANASIGMKKYFVGVNTAGKVAISAKKIEGENIGAQVLGLFTLSSGKDIWEQLS	663	207	0	0
PRT-114 (protein) MRNATEAYNEETPHQITSVWTKGVTPPTPEQFRYNNEDVIHAPYLANQGWYDITKTFNGKDNLLCGAATAGNMLHWWFDQNKTEIEAYLSKHPEKQKIIFNNQELFDLKAAIDTKDSQTNSQLFNYFREKAFPNLSARQLGVMPDLVLDMFINGYYLNVTKTQSTDVNRPYQDKDKRGGIFDAVFTRGDQTKLLTARHDLKNKTLNEISTLIKQELTEGRALALSHTYANVSISHVINLWGADFNAEGNLEAIYVTDSDANASIGMKKYFVGVNAAGHVAISAKKIEGENIGAQVLGLFTLSSGKDIWQKLS	361	162	129	111
